Source: the supplement of paper PMC9112550, “Optimization of the antimicrobial peptide Bac7 by deep mutational scanning” (BMC Biology, 2022)

tested on: Escherichia coli TOP10; experiment: shrunken log2 fold change of peptide-encoding DNA abundance (4.5 h post-induction vs induction); higher = less antimicrobial activity (less host growth inhibition); details: time post-induction: 4.5 h; library: site-saturation at positions 5, 18, 19, 20
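Note: peptides expressed intracellularly from a pBAD plasmid library in pooled LB shake-flask culture, induced with 0.3% L-arabinose, DNA abundance read by NGS, three biological replicates, DESeq2 with apeglm shrinkage.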

Going from RRIRVRPPRLPRPRPRPPEKPRP to RRIRGRPPRLPRPRPRPLNEPRP, the “shrunken log2 fold change” value rises from 0.0629 to 0.57.

RRIRWRPPRLPRPRPRPKSMPRP and RRIRLRPPRLPRPRPRPYGFPRP are within 0.2 log units of each other in “shrunken log2 fold change” value: -0.0141 for the first, 0.00785 for the second.

Compared with RRIRRRPPRLPRPRPRPCDPPRP, RRIRPRPPRLPRPRPRPSYHPRP is lower in “shrunken log2 fold change” value: 0.0316 for the first, -0.641 for the second.

Going from RRIRMRPPRLPRPRPRPTNGPRP to RRIRYRPPRLPRPRPRPPDGPRP, the “shrunken log2 fold change” value rises from -0.0328 to 0.176.

First: RRIRNRPPRLPRPRPRPVTDPRP
Second: RRIRNRPPRLPRPRPRPGHEPRP
The “shrunken log2 fold change” value of the first is higher: -0.013 for the first, -0.265 for the second.

RRIRGRPPRLPRPRPRPTCNPRP and RRIRQRPPRLPRPRPRPEIWPRP are within 0.2 log units of each other in “shrunken log2 fold change” value: 0.7 for the first, 0.618 for the second.

First: RRIRRRPPRLPRPRPRPQLHPRP
Second: RRIRERPPRLPRPRPRPQTIPRP
The “shrunken log2 fold change” value of the first is higher: -0.00676 for the first, -0.378 for the second.

Going from RRIRWRPPRLPRPRPRPNQYPRP to RRIRMRPPRLPRPRPRPGYKPRP, the “shrunken log2 fold change” value falls from -0.113 to -0.517.

First: RRIRCRPPRLPRPRPRPGQCPRP
Second: RRIRSRPPRLPRPRPRPSHWPRP
The “shrunken log2 fold change” value of the first is lower: -0.11 for the first, 0.337 for the second.

First: RRIRPRPPRLPRPRPRPDVRPRP
Second: RRIRVRPPRLPRPRPRPMKIPRP
The “shrunken log2 fold change” value of the first is higher: 1.79 for the first, -0.232 for the second.

RRIRGRPPRLPRPRPRPIKDPRP and RRIRFRPPRLPRPRPRPTWGPRP are within 0.2 log units of each other in “shrunken log2 fold change” value: 0.309 for the first, 0.132 for the second.

RRIRPRPPRLPRPRPRPKCRPRP and RRIRKRPPRLPRPRPRPIENPRP are within 0.2 log units of each other in “shrunken log2 fold change” value: 0.00849 for the first, -0.0721 for the second.

RRIRWRPPRLPRPRPRPQMHPRP and RRIRPRPPRLPRPRPRPAETPRP are within 0.2 log units of each other in “shrunken log2 fold change” value: 0.0794 for the first, -0.0458 for the second.

First: RRIRNRPPRLPRPRPRPYWLPRP
Second: RRIRSRPPRLPRPRPRPQQKPRP
The “shrunken log2 fold change” value of the first is lower: -0.55 for the first, -0.138 for the second.

Going from RRIRRRPPRLPRPRPRPTYAPRP to RRIRIRPPRLPRPRPRPYDTPRP, the “shrunken log2 fold change” value falls from 0.218 to -0.0277.

Going from RRIRSRPPRLPRPRPRPDRHPRP to RRIRNRPPRLPRPRPRPLYLPRP, the “shrunken log2 fold change” value falls from -0.0205 to -0.54.

Compared with RRIRRRPPRLPRPRPRPAQMPRP, RRIRNRPPRLPRPRPRPWVPPRP is lower in “shrunken log2 fold change” value: 0.161 for the first, -1.03 for the second.

Compared with RRIRGRPPRLPRPRPRPYTAPRP, RRIRCRPPRLPRPRPRPDDLPRP is higher in “shrunken log2 fold change” value: -0.455 for the first, -0.118 for the second.

RRIRYRPPRLPRPRPRPHVWPRP and RRIRDRPPRLPRPRPRPTIFPRP are within 0.2 log units of each other in “shrunken log2 fold change” value: 0.0773 for the first, 0.0643 for the second.

First: RRIRGRPPRLPRPRPRPQMHPRP
Second: RRIRARPPRLPRPRPRPYLNPRP
The “shrunken log2 fold change” value of the first is higher: 0.989 for the first, -0.914 for the second.

RRIRVRPPRLPRPRPRPEDRPRP and RRIRRRPPRLPRPRPRPFLHPRP are within 0.2 log units of each other in “shrunken log2 fold change” value: 0.0837 for the first, 0.0267 for the second.

Compared with RRIRWRPPRLPRPRPRPHCEPRP, RRIRSRPPRLPRPRPRPFAWPRP is higher in “shrunken log2 fold change” value: -0.262 for the first, -0.0248 for the second.

RRIRFRPPRLPRPRPRPTKVPRP and RRIRKRPPRLPRPRPRPVNQPRP are within 0.2 log units of each other in “shrunken log2 fold change” value: -0.157 for the first, -0.145 for the second.

Compared with RRIRDRPPRLPRPRPRPWPIPRP, RRIRARPPRLPRPRPRPDNDPRP is lower in “shrunken log2 fold change” value: 0.00865 for the first, -0.196 for the second.

First: RRIRNRPPRLPRPRPRPYNEPRP
Second: RRIRARPPRLPRPRPRPGVDPRP
The “shrunken log2 fold change” value of the first is lower: -0.11 for the first, 0.664 for the second.

Compared with RRIRKRPPRLPRPRPRPGPLPRP, RRIRFRPPRLPRPRPRPDDKPRP is lower in “shrunken log2 fold change” value: 0.578 for the first, -0.059 for the second.

First: RRIRIRPPRLPRPRPRPLCDPRP
Second: RRIRYRPPRLPRPRPRPWWAPRP
The “shrunken log2 fold change” value of the first is lower: -0.655 for the first, -0.19 for the second.

RRIRSRPPRLPRPRPRPTKLPRP and RRIRNRPPRLPRPRPRPCPWPRP are within 0.2 log units of each other in “shrunken log2 fold change” value: 0.0448 for the first, -0.141 for the second.

First: RRIRNRPPRLPRPRPRPTQLPRP
Second: RRIRFRPPRLPRPRPRPILTPRP
The “shrunken log2 fold change” value of the first is higher: -0.0336 for the first, -0.689 for the second.

Going from RRIRVRPPRLPRPRPRPRLNPRP to RRIRKRPPRLPRPRPRPAEQPRP, the “shrunken log2 fold change” value rises from -0.00875 to 0.452.
